T1: p105 (Homo sapiens, UniProt P19838)
T1 sequence (P19838 1-968): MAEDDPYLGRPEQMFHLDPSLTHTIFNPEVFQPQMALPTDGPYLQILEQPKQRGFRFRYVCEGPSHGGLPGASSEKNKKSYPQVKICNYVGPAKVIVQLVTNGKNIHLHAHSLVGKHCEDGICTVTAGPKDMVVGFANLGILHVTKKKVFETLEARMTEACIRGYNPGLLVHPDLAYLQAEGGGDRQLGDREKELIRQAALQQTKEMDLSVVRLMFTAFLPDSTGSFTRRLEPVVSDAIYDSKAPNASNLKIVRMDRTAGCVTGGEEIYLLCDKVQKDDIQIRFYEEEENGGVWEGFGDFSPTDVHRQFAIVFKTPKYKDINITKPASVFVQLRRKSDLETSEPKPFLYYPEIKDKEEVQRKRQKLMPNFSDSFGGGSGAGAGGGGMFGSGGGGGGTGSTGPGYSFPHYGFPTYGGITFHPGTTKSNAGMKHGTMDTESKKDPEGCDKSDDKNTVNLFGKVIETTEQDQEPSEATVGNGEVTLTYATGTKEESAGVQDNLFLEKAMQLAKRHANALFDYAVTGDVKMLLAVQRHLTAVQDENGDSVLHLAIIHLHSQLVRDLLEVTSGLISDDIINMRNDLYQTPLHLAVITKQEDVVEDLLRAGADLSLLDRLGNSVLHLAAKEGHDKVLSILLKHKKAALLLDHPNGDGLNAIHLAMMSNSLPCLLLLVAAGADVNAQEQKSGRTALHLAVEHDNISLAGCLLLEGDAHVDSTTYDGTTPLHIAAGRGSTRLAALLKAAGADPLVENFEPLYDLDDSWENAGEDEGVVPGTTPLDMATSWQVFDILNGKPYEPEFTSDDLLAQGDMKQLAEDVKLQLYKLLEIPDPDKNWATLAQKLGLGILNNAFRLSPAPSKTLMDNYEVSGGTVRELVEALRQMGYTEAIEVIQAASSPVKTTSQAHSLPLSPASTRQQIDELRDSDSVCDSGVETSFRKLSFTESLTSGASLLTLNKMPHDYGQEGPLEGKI

B1: KPC1Δ1-967: KPC1 species that lacks amino acids 1-967, SEQ ID NO: 5 (protein)
chain: WILVRLWRGCGFGYRYTRLPHLLKTKLEDANLPSLQKPCPSTLLQQHMADLLQQGPDVAPSFLNSVLNQLNWAFSEFIGMIQEIQQAAERLERNFVDSRQLKVCATCFDLSVSLLRVLEMTITLVPEIFLDWTRPTSEMLLRRLAQLLNQVLNRVTAERNLFDRVVTLRLPGLESVDHYPILVAVTGILVQLLVRGPASEREQATSVLLADPCFQLRSICYLLGQPEPPAPGTALPAPDRKRFSLQSYADYISADELAQVEQMLAHLTSASAQAAAASLPTSEEDLCPICYAHPISAVFQPCGHKSCKACINQHLMNNKDCFFCKTTIVSVEDWEKGANTSTTSSAA
B2: KPC1Δ1-973: KPC1 species that lacks the amino acids 1-973 (protein, UniProt Q5XPI4 974-1314, looked up, fragment)
chain: WRGCGFGYRYTRLPHLLKTKLEDANLPSLQKPCPSTLLQQHMADLLQQGPDVAPSFLNSVLNQLNWAFSEFIGMIQEIQQAAERLERNFVDSRQLKVCATCFDLSVSLLRVLEMTITLVPEIFLDWTRPTSEMLLRRLAQLLNQVLNRVTAERNLFDRVVTLRLPGLESVDHYPILVAVTGILVQLLVRGPASEREQATSVLLADPCFQLRSICYLLGQPEPPAPGTALPAPDRKRFSLQSYADYISADELAQVEQMLAHLTSASAQAAAASLPTSEEDLCPICYAHPISAVFQPCGHKSCKACINQHLMNNKDCFFCKTTIVSVEDWEKGANTSTTSSAA
B3: WILVRLW-KPC1Δ1-1253: KPC1 lacking amino acids 1-1253 with WILVRLW at its N-terminus, SEQ ID NO: 8 (protein)
chain: WILVRLWCPICYAHPISAVFQPCGHKSCKACINQHLMNNKDCFFCKTTIVSVEDWEKGANTSTTSSAA
B4: KPC1Δ1-1017: KPC1 species that lacks the amino acids 1-1017 (protein, UniProt Q5XPI4 1018-1314, looked up, fragment)
chain: LLQQGPDVAPSFLNSVLNQLNWAFSEFIGMIQEIQQAAERLERNFVDSRQLKVCATCFDLSVSLLRVLEMTITLVPEIFLDWTRPTSEMLLRRLAQLLNQVLNRVTAERNLFDRVVTLRLPGLESVDHYPILVAVTGILVQLLVRGPASEREQATSVLLADPCFQLRSICYLLGQPEPPAPGTALPAPDRKRFSLQSYADYISADELAQVEQMLAHLTSASAQAAAASLPTSEEDLCPICYAHPISAVFQPCGHKSCKACINQHLMNNKDCFFCKTTIVSVEDWEKGANTSTTSSAA
B5: KPC1ΔCC: KPC1 species that lacks the amino acids 1041-1061 (coiled coil domain) (protein)
chain: MASKGAGMSFSRKSYRLTSDAEKSRVTGIVQEKLLNDYLNRIFSSSEHAPPAATSRKPLNFQNLPEHLDQLLQVDNEEEESQGQVEGRLGPSTVVLDHTGGFEGLLLVDDDLLGVIGHSNFGTIRSTTCVYKGKWLYEVLISSQGLMQIGWCTISCRFNQEEGVGDTHNSYAYDGNRVRKWNVTTTNYGKAWAAGDIVSCLIDLDDGTLSFCLNGVSLGTAFENLSRGLGMAYFPAISLSFKESVAFNFGSRPLRYPVAGYRPLQDPPSADLVRAQRLLGCFRAVLSVELDPVEGRLLDKESSKWRLRGQPTVLLTLAHIFHHFAPLLRKVYLVEAVLMSFLLGIVEKGTPTQAQSVVHQVLDLLWLFMEDYEVQDCLKQLMMSLLRLYRFSPIVPDLGLQIHYLRLTIAILRHEKSRKFLLSNVLFDVLRSVVFFYIKSPLRVEEAGLQELIPTTWWPHCSSREGKESTEMKEETAEERLRRRAYERGCQRLRKRIEVVEELQVQILKLLLDNKDDNGGEASRYIFLTKFRKFLQENASGRGNMPMLCPPEYMVCFLHRLISALRYYWDEYKASNPHASFSEEAYIPPQVFYNGKVDYFDLQRLGGLLSHLRKTLKDDLASKANIVIDPLELQSTAMDDLDEDEEPAPAMAQRPMQALAVGGPLPLPRPGWLSSPTLGRANRFLSTAAVSLMTPRRPLSTSEKVKVRTLSVEQRTREDIEGSHWNEGLLLGRPPEEPEQPLTENSLLEVLDGAVMMYNLSVHQQLGKMVGVSDDVNEYAMALRDTEDKLRRCPKRRKDILAELTKSQKVFSEKLDHLSRRLAWVHATVYSQEKMLDIYWLLRVCLRTIEHGDRTGSLFAFMPEFYLSVAINSYSALKNYFGPVHSMEELPGYEETLTRLAAILAKHFADARIVGTDIRDSLMQALASYVCYPHSLRAVERIPEEQRIAMVRNLLAPYEQRPWAQTNWILVRLWRGCGFGYRYTRLPHLLKTKLEDANLPSLQKPCPSTLLQQHMADLLQQGPDVAPSFLNSVLNQLNWAFVDSRQLKVCATCFDLSVSLLRVLEMTITLVPEIFLDWTRPTSEMLLRRLAQLLNQVLNRVTAERNLFDRVVTLRLPGLESVDHYPILVAVTGILVQLLVRGPASEREQATSVLLADPCFQLRSICYLLGQPEPPAPGTALPAPDRKRFSLQSYADYISADELAQVEQMLAHLTSASAQAAAASLPTSEEDLCPICYAHPISAVFQPCGHKSCKACINQHLMNNKDCFFCKTTIVSVEDWEKGANTSTTSSAA

For this assay, the target named is T1, p105. Kind of assay: Co-immunoprecipitation (Co-IP) of KPC1 species with p105-HA from transfected HEK293T cells. It is filed as binding. Further details: HA; expressed in transfected cells; host or cells: HEK293T. To be noted: anti-FLAG immunoprecipitation, anti-NF-κB1 western blot. The text has this: FIG. 1B is a western blot showing the following: HEK293T cells were transfected with cDNAs coding for p105-HA (lanes 1-6), along with the different KPC1 species as following: W.T KPC1 (lane 1), KPC1Δ969-1314 (lane 2), KPC1Δ1-438 & 1039-1314 (lane 3), KPC1Δ1-967 (lane 4) and KPC1Δ1-1042 (lane 5). Lane 6 was transfected with an empty vector. KPC1 species were immunoprecipitated using immobilized FLAG antibodies, resolved by SDS-page, and NF-κB1 and KPC1 proteins were visualized by anti-NF-κB1 (FIG. 1B (upper)) and anti-FLAG (FIG. 1B (bottom)) antibodies, respectively. 10% of the total cell lysate was analyzed for the expression of p105-HA.
FIG. 2B is a western blot. HEK293T cells were transfected with cDNAs coding for p105-HA (lanes 1-7), along with different KPC1 species as following: WT KPC1 (lane 1), KPC1Δ1-967 (lane 2), KPC1Δ967-1043 (lane 3), KPC1Δ1-973 (lane 4), KPC1Δ1-1017 (lane 5) and KPC1ΔCC domain (lane 6). Lane 7 represents cells that were transfected with empty vector. KPC1 species were immunoprecipitated using immobilized FLAG antibodies, resolved by SDS-page. NF-κB1 and KPC1 proteins were visualized with anti-NF-κB1 (FIG. 2B (i)) and anti-FLAG (FIG. 2B (ii)) antibodies, respectively. 10% of the total cell lysate was analyzed for the expression of p105-HA. FIGS. 3A and 3B: FIG. 3A is a schematic representation of KPC1 species used in the experiment shown in FIG. 3B that was directed to evaluating the region of KPC1 that is responsible for the interaction with p105.
FIG. 3B is a western blot. HEK293T cells were transfected with cDNAs coding for p105-HA (lanes 1-12), along with different KPC1 species as following: KPC1-FLAG (lane 1), WILVRLW-KPC1 Δ 1-1253 (SEQ ID NO: 8) (lane 2), ILVRLW-KPC1 Δ 1-1253 (SEQ ID NO: 10) (lane 3), LVRLW-KPC1 Δ 1-1253 (SEQ ID NO: 11) (lane 4), VRLW-KPC1 Δ 1-1253 (lane 5) (SEQ ID NO: 12), RLW-KPC1 Δ 1-1253 (lane 6) SEQ ID NO:13), KPC1 Δ 1-1253 (lane 7), WILVRL-KPC1 Δ 1-1253 (lane 8) (SEQ ID NO: 14), WILVR-KPC1 Δ 1-1253 (SEQ ID NO: 15) (lane 9), WILV-KPC1 Δ 1-1253 (SEQ ID NO: 16) (lane 10), WIL-KPC1 Δ 1-1253 (SEQ ID NO: 17 (lane 11). Lane 12 represents cells that were transfected with empty vector. KPC1 species were immunoprecipitated using immobilized FLAG antibodies, resolved by SDS-page. NF-κB1 and KPC1 proteins were visualized by anti-NF-κB1 (FIG. 3B, (i, ii) and anti-FLAG (FIG. 3B, (iii) antibodies, respectively. 10% of the total cell lysate was analyzed for the expression of p105-HA (FIG. 3B, (ii)).
HEK293T cells were transiently transfected with the various KPC1 species along with p105-HA using the j etPEI reagent. 48 hours after transfection, the cells were harvested and lysed with RIPA buffer [150 mM NaCl, 0.5% sodium deoxycholate, 50 mM Tris-HCl (pH 8.0), 0.1% SDS, and 1% NP-40, supplemented with freshly added protease inhibitors mixture]. KPC1 species proteins were immunoprecipitated with immobilized anti-FLAG, with subsequent washing of the beads five times with RIPA buffer. The immunoprecipitated proteins were resolved by SDS-PAGE (10%, FIGS. 1A, 1B, 2A and 2B, with a gel gradient, of 4-20%; FIGS. 3A and 3B), and blotted onto nitrocellulose (FIGS. 1A, 1B, 2A and 2B) or PVDF (FIGS. 3A and 3B) membranes. p105 and KPC1 species were visualized using anti-NF-κB1 or anti-FLAG antibodies, respectively.
Identification of the region of KPC1 that is responsible for the interaction with p105. In order to identify the region of KPC1 that is responsible for the interaction with p105, several truncated segments of the DNA sequence of the KPC1 protein were cloned. The truncated segments were inserted into the pCAGGS expression vector to analyze their interaction with p105 by co-immunoprecipitation (Co-IP) from cells. HEK 293T cells were transfected with cDNAs coding for p105-HA, along with different fragments of KPC1 (FIG. 1A). Species of KPC1 were immunoprecipitated using an immobilized anti-Flag antibody. […]
For orientation: Immunoblotting shows a protein as a band on a membrane.
Consider B1, for which the “interaction with p105 (Co-IP)” value was “an interaction was observed”. In the case of B2 it was “the interaction between these two proteins was abrogated”; in that of B3, “An interaction was observed”.

For the molecule B4, the “interaction with p105 (Co-IP)” value is listed as “did not interact with p105”.

As for B5, the “interaction with p105 (Co-IP)” value is reported as “An interaction”.

For the origin of these results see patent US12421510B2, “Peptide, a complex and a method for treating cancer” (TECHNION RESEARCH & DEVELOPMENT FOUNDATION LIMITED, priority 2018, dated 2025).
